Here are results for one molecule from patent US20040001822A1, “Y1-isolated molecules comprising epitopes containing sulfated moieties, antibodies to such epitopes, and uses thereof” (priority 2000, published 2004).

Starred links: 1 amine or outer side, 2 acyl side, 3 side chain; linkers in the order of their positions; H or OH if unused. No end group written: not given here. SO3H = sulfated tyrosine (Y*), O=S(=O)(O)[*:2]

What all share (settings): remark: other sources report otherwise
For assay [1], the target named is Y1 scFv. Nature of the assay: competition FACS, peptide 2.5 µM preincubated with Y1-scFv, washed platelets.
Chain of Y1 scFv (chain, as listed by the source): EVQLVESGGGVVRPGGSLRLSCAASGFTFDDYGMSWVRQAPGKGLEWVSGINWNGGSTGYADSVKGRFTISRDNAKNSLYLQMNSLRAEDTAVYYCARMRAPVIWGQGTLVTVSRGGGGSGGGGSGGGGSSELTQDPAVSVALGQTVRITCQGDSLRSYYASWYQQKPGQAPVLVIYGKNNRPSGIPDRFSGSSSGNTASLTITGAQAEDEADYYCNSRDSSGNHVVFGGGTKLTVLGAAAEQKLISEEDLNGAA
Assay [2] has as its target Y1 scFv. Nature of the assay: competition FACS, peptide 200 µM preincubated with Y1-scFv, washed platelets.
Assay [3] addresses Y1 scFv. The assay can be described thus: competition ELISA, peptide 25 µM preincubated with Y1 (0.25 µg/well), glycocalicin-coated plate. A general note: ELISA stands for enzyme-linked immunosorbent assay.
Assay [4] deals with Y1 scFv. Nature of the assay: competition ELISA, peptide 0.5 µM preincubated with Y1 (0.25 µg/well), glycocalicin-coated plate.
In assay [5] the target is Y1 scFv. The assay can be described thus: competition ELISA, peptide 2.5 µM preincubated with Y1 (0.25 µg/well), glycocalicin-coated plate.
For assay [6], the target named is Y1 scFv. The assay can be described thus: competition ELISA, peptide 200 µM preincubated with Y1 (0.25 µg/well), glycocalicin-coated plate.

Take GDEGDTDLY(SO3H)DY(SO3H)Y(SO3H)PEEDTE [P-1-S peptide (residues 268-285 of GPIbα, sulfated)]: the Residual Binding of Y1 (% of baseline) (Geo Mean) in assay [1] turned out to be 41%; in assay [2], 5%. For the same molecule, the Residual Binding of Y1 (% of baseline) turned out to be 25% in assay [3], 89% in assay [4], 62% in assay [5] and 0% in assay [6].
